According to paper PMC5609712 (Molecular cell, 2017):

T1: Mre11, flag-tagged, purified alone (human, UniProt P49959 1-708)
T1 sequence (looked up): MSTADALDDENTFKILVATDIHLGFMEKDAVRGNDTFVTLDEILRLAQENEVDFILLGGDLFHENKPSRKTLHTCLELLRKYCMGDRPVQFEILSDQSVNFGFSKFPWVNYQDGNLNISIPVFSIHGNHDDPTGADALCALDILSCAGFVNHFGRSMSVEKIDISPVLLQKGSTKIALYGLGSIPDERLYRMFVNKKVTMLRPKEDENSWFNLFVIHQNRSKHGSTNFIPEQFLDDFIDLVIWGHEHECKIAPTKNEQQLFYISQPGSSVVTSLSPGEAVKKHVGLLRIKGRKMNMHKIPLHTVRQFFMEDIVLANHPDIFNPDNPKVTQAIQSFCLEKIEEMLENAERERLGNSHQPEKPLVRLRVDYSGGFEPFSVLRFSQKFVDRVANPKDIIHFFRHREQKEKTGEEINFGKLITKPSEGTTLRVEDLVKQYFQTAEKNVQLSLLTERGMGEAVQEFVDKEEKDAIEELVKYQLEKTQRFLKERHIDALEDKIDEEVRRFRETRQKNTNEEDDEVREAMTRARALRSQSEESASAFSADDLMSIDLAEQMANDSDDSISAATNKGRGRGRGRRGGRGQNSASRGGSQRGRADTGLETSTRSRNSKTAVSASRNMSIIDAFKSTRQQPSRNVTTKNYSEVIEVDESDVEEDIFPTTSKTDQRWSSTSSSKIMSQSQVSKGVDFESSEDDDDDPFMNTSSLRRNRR

B1: Exo1(NTD), catalytic Exo1 core, N-terminal domain encoding amino acids 1-352, biotinylated (domain or fragment, human, UniProt Q9UQ84 1-352, looked up)
chain: MGIQGLLQFIKEASEPIHVRKYKGQVVAVDTYCWLHKGAIACAEKLAKGEPTDRYVGFCMKFVNMLLSHGIKPILVFDGCTLPSKKEVERSRRERRQANLLKGKQLLREGKVSEARECFTRSINITHAMAHKVIKAARSQGVDCLVAPYEADAQLAYLNKAGIVQAIITEDSDLLAFGCKKVILKMDQFGNGLEIDQARLGMCRQLGDVFTEEKFRYMCILSGCDYLSSLRGIGLAKACKVLRLANNPDIVKVIKKIGHYLKMNITVPEDYINGFIRANNTFLYQLVFDPIKRKLIPLNAYEDDVDPETLSYAGQYVDDSIALQIALGNKDINTFEQIDDYNPDTAMPAHSR
B2: Nbs1, flag-tagged, purified alone (natural protein, human, UniProt O60934 1-754, looked up)
chain: MWKLLPAAGPAGGEPYRLLTGVEYVVGRKNCAILIENDQSISRNHAVLTANFSVTNLSQTDEIPVLTLKDNSKYGTFVNEEKMQNGFSRTLKSGDGITFGVFGSKFRIEYEPLVACSSCLDVSGKTALNQAILQLGGFTVNNWTEECTHLVMVSVKVTIKTICALICGRPIVKPEYFTEFLKAVESKKQPPQIESFYPPLDEPSIGSKNVDLSGRQERKQIFKGKTFIFLNAKQHKKLSSAVVFGGGEARLITEENEEEHNFFLAPGTCVVDTGITNSQTLIPDCQKKWIQSIMDMLQRQGLRPIPEAEIGLAVIFMTTKNYCDPQGHPSTGLKTTTPGPSLSQGVSVDEKLMPSAPVNTTTYVADTESEQADTWDLSERPKEIKVSKMEQKFRMLSQDAPTVKESCKTSSNNNSMVSNTLAKMRIPNYQLSPTKLPSINKSKDRASQQQQTNSIRNYFQPSTKKRERDEENQEMSSCKSARIETSCSLLEQTQPATPSLWKNKEQHLSENEPVDTNSDNNLFTDTDLKSIVKNSASKSHAAEKLRSNKKREMDDVAIEDEVLEQLFKDTKPELEIDVKVQKQEEDVNVRKRPRMDIETNDTFSDEAVPESSKISQENEIGKKRELKEDSLWSAKEISNNDKLQDDSEMLPKKLLLTEFRSLVIKNSTSRNPSGINDDYGQLKNFKKFKKVTYPGAGKLPHIIGGSDLIAHHARKNTELEEWLRQEMEVQNQHAKEESLADDLFRYNPYLKRRR
B3: Exonuclease 1, biotinylated, full length (enzyme, human, UniProt Q9UQ84 1-846, looked up)
chain: MGIQGLLQFIKEASEPIHVRKYKGQVVAVDTYCWLHKGAIACAEKLAKGEPTDRYVGFCMKFVNMLLSHGIKPILVFDGCTLPSKKEVERSRRERRQANLLKGKQLLREGKVSEARECFTRSINITHAMAHKVIKAARSQGVDCLVAPYEADAQLAYLNKAGIVQAIITEDSDLLAFGCKKVILKMDQFGNGLEIDQARLGMCRQLGDVFTEEKFRYMCILSGCDYLSSLRGIGLAKACKVLRLANNPDIVKVIKKIGHYLKMNITVPEDYINGFIRANNTFLYQLVFDPIKRKLIPLNAYEDDVDPETLSYAGQYVDDSIALQIALGNKDINTFEQIDDYNPDTAMPAHSRSHSWDDKTCQKSANVSSIWHRNYSPRPESGTVSDAPQLKENPSTVGVERVISTKGLNLPRKSSIVKRPRSAELSEDDLLSQYSLSFTKKTKKNSSEGNKSLSFSEVFVPDLVNGPTNKKSVSTPPRTRNKFATFLQRKNEESGAVVVPGTRSRFFCSSDSTDCVSNKVSIQPLDETAVTDKENNLHESEYGDQEGKRLVDTDVARNSSDDIPNNHIPGDHIPDKATVFTDEESYSFESSKFTRTISPPTLGTLRSCFSWSGGLGDFSRTPSPSPSTALQQFRRKSDSPTSLPENNMSDVSQLKSEESSDDESHPLREEACSSQSQESGEFSLQSSNASKLSQCSSKDSDSEESDCNIKLLDSQSDQTSKLRLSHFSKKDTPLRNKVPGLYKSSSADSLSTTKIKPLGPARASGLSKKPASIQKRKHHNAENKPGLQIKLNELWKNFGFKKDSEKLPPCKKPLSPVRDNIQLTPEAEEDIFNKPECGRVQRAIFQ
modifications: biotinylated (co-infected with a BirA virus)

Legend:
Assay in all cases: pull-down
[1] = target: T1, Mre11, flag-tagged, purified alone
[2] = target: B3
[3] = target: Mre11-Rad50-Nbs1 complex (triple flag on Mre11) (human, UniProt P49959 1-708; Q92878 1-1312; O60934 1-754)
Chain of Mre11-Rad50-Nbs1 complex (triple flag on Mre11) (Q92878 whole entry, one chain of several): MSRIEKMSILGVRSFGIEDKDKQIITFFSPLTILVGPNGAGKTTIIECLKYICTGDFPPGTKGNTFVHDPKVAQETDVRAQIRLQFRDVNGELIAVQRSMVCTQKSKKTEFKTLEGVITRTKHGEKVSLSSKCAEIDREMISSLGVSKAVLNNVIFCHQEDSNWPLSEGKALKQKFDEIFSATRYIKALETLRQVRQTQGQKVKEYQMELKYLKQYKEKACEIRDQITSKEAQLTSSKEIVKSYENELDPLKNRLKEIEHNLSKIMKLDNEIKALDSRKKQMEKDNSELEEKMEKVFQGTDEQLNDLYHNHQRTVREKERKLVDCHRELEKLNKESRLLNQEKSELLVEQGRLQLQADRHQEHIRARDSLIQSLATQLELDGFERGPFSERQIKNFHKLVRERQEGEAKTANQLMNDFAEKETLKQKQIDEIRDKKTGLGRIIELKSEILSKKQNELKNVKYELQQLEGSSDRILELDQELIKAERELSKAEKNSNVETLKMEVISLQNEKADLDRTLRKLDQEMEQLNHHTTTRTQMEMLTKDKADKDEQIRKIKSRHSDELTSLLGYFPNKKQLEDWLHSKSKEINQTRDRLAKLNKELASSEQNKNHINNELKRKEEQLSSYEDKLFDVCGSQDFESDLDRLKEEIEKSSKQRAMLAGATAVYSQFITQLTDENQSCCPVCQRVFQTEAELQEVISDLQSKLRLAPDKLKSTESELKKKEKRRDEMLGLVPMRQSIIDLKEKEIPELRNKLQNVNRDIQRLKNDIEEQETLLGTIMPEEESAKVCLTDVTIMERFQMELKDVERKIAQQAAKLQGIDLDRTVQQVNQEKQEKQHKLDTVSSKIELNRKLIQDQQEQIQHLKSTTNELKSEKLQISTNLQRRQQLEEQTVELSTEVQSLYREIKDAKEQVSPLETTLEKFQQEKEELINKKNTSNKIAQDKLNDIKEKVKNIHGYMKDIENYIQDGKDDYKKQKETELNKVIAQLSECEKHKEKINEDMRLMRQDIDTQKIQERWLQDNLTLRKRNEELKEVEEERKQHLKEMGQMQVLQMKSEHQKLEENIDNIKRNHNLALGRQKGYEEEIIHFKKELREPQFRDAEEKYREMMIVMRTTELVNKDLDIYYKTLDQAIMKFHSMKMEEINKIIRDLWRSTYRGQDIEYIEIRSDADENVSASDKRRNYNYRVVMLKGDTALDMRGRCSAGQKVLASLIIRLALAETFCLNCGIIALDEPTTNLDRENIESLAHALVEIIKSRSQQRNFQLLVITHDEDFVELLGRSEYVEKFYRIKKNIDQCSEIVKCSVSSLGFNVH

Binder: B1
- binding result [1]: binds

Binder: B2
- binding result [2]: binds

Binder: B3
- binding result [3]: binds
